Assay results reported in US20080279856A1, “Inhibition of Bradykinin Release” (Novo Nordisk Pharmaceuticals, Inc., priority 1999, published 2008).

What was measured:
[1] = test system: HUVEC or BAEC monolayers; test: EC intracellular free Ca2+ (fluo-3/AM, confocal microscopy); type: cell-based, human, bovine; details: HBP 75 μg/ml
Procedure: The Ca^2+ sensitive fluorescent probe fluo-3/AM is used for determination of changes in EC intracellular free Ca^2+. Confluent HUVEC or BAEC monolayers cultured on Biomatrix I coated filters are incubated with a Fluo-3/AM solution (3 μM in HBSS containing 2% FCS and […] HEPES), added to both the apical and basolateral surface, for 30 min at 37° C. The monolayers are washed three times and incubated with fresh HBSS in the dark for 20 min at room temperature before use to allow complete hydrolysis of the dye ester to its calcium sensitive free acid form. EC are stimulated with HBP added to the apical surface. Changes in EC Ca^2+i in response to HBP stimulation are measured through continuous registration of fluorescence intensity with a laser-scanning confocal imaging system (Insight Plus; Meridian Instruments Inc., Okemon, Mich.).

[2] = test system: endothelial cells and fibroblasts; details: cited from earlier work
[3] = test system: EC monolayers (HUVEC or BAEC); test: Transendothelial electrical resistance (TEER) of EC monolayers after HBP stimulation; type: cell-based, human, bovine
Procedure: Human umbilical vein endothelial cells (HUVEC) are isolated from fresh umbilical cords as described by Jaffe et al., 1973, J. Clin. Invest. 52:2745-2756), and bovine aorta endothelial cells (BAEC) are isolated according to the method of Booyse et al., 1975, Thromb. Diath. Haemmorrh. 24:825-839) with a few modifications. Briefly, the lumen of the umbilical vein or bovine aorta is incubated with a 0.25% collagenase solution for 10 min, and detached endothelial cells washed out with PBS. Harvested cells are pelleted and resuspended in culture medium, seeded in tissue culture flasks and incubated under standard conditions. Medium is changed every 48 h until cultures have reached confluence (3-5 days). HUVEC or BAEC in the first to fifth passages are used in the experiments. Identification and purity determination of ECs are based on cobblestone morphology and characterization by factor VIII/vWf antigen (Booyse et al., 1975, Thromb. Diath. Haemmorrh. 24:825-839). Staining for factor VIII/vWf factor is homogeneous in the cells.
Cultured EC are detached by brief (2 min) trypsin-EDTA treatment (0.25% trypsin/0.01% EDTA) and replated onto either 0.2 μm pore size Anopore inorganic membrane or 3.0 μm pore size polycarbonate filters (Tissue Culture inserts, 10 mm; NUNC, Roskilde, Denmark). […] The ECs are grown to confluent monolayers, as assessed by daily microscopic observation and measurement of the electrical resistance across the monolayer.
For measurement of electrical resistance across the EC monolayer, the filter insert is transferred to a resistance measurement chamber (ENDOHM-12; World Precision Instruments, Sarasota, Fla., USA) modified so as to assure exact positioning of the electrodes in relation to each other and to the filter insert during repeated measurements. […] Direct readings of the electrical resistance are given by an ohmmeter (EVOM; World Precision Instruments, Sarasota, Fla., USA) connected to the electrodes of the resistance chamber. […]

[4] = 3H-LPS binding to HBP, scintillation proximity assay; details: saturation, SPA
Procedure: The affinity for lipopolysaccharide (3H-LPS) is measured by scintillation proximity assay technology (SPA) as described (Linde, V., Bjørn, S., Kastrup, J. S., and Flodgaard, H., 2000, Biotechniques 28:218-222). All samples are repeated in triplicates.

[5] = test system: EC monolayers; test: F-actin distribution in EC (FITC-phalloidin staining); type: cell-based, human, bovine; details: HBP 75 μg/ml, 15 min
Procedure: For analysis of F-actin distribution in EC in response to stimulation with HBP, confluent EC monolayers grown on Biomatrix coated coverslips are incubated with HBP or vehicle alone at 37° C. for 15 min. The monolayers are washed twice in culture medium and fixed in 3.7% formaldehyde in PBS for 10 min at room temperature. EC are permeabilized with 0.2% Triton® X-100 in PBS (1 min at 4° C.), washed twice and stained for actin filaments with FITC-conjugated phalloidin for 20 min at 37° C. The endothelial cells are again washed three times in PBS and viewed in a laser scanning confocal microscope.

B1: HBP: Native human heparin-binding protein, mature form with the amino acid sequence SEQ ID NO:1 (protein, listed as Homo sapiens)
chain: IVGGRKARPRQFPFLASIQNQGRHFCGGALIHARFVMTAASCFQSQNPGVSTVVLGAYDLRRRERQSRQTFSISSMSENGYDPQQNLNDLMLLQLDREANLTSSVTILPLPLQNATVEAGTRCQVAGWGSQRSGGRLSRFPRFVNVTVTPEDQCRPNNVCTGVLTRRGGICNGDGGTPLVCEGLAHGVASFSLGPCGRGPDFFTRVALFRDWIDGVLNNPGPGPA
[1]
  change in EC cytosolic Ca2+ (fluo-3 fluorescence intensity): rapid increase in fluorescence intensity
  time to peak of Ca2+ fluorescence: ≤ 1 min
[2]
  cell contraction: induce contraction
[3]; HBP 75 μg/ml to upper compartment
  onset of decrease in transendothelial resistance: within one min
[3]; HBP 75 μg/ml to upper compartment, after 15 min
  decrease in transendothelial resistance, maximum: 30%±3%
[3]; HBP 25, 50 and 75 μg/ml
  dose dependence of EC responses (TEER): clearly dose-dependent
[4]
  apparent Kd for 3H-LPS: approximately 0.7 μg/mL
[5]
  F-actin content and distribution: substantial changes in F-actin content and distribution
